From patent US20220220212A1 (RESEARCH FOUNDATION FOR THE STATE UNIVERSITY OF NEW YORK, published 2022)

T1: biotinylated N-terminal domain CCR2 peptide (murine, biotinylated (position not given))
T1 construct: Bought from ABclonal; also called CCR2 N-terminal domain; CCR2 N-terminus
T1 peptide: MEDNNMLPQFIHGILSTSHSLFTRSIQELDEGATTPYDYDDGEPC

T2: ECL2 domain of the CCR2 chemokine receptor
T2 construct: also called CCR2 ECL2; 2nd extracellular loop of CCR2
T2 peptide: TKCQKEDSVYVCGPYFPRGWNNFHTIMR

B1: phage clone 26B (scFv)
scFv: LQSVLTQPPSASGTPGQRVTISCSGSSSNIGSNYVYWYQQLPGTAPKLLIYRNNQRPSGVPDRFSGSKSGTSASLAISGLQSEDEADYYCAAWDDSLNGVVFGGGTELTVLGEGKSSGSGSESKASQVTLKESGAEVKKPGASVKVSCKASGYTFTNFYIHWVRRAPGQGLEWMGIINPSDGRTTYAQKFQGRVTMTRDTSTSTLYMELTSLRSEDTAVYYCGRGGHYSNYFGQPSTWGQGTLVTVSS
notes: also called 26B-scFv
B2: phage clone 25B (scFv)
scFv: LQSVLTQPPSVSGAPGQKVTISCSGSSSNIGNNYVSWYQQLPGTAPKLLIYGNNKRPSGIPDRFSGSKSGTSATLGITGLQTGDEADYYCATWDDSLSAVVFGGGTKLTVLGEGKSSGSGSESKASQVTLKESGAEVKKPGASVKVSCKASGYTFTNFYIHWVRRAPGQGLEWMGIINPSDGRTTYAQKFQGRVTMTRDTSTSTLYMELTSLRSEDTAVYYCGRGGHYSNYFGQPSTWGQGTLVTVSS
notes: also called 25B-scFv
B3: phage clone 13F (scFv)
scFv: LQAVLTQPSSLSASPGASASLTCILRSDFSVVTQRVYWYQQKPGSPPRYLLRYNSDSDKRLGSGVPSRFSGSKDVSANAASLLISGLQSDDEADYYCVIWHNSAVVFGGGTKLTVLGEGKSSGSGSESKASEVQLLESGAEVKKPGESLKISCKGSGYSFTSYWIGWVRQMPGKGLEWMGIIYPGDSDTRYSPSFQGQVTISADKSISTAYLQWSSLKASDTAMYYCARRPQYYDILTGWHAGWFDPWGQGTLVTVSS
notes: also called 13F-scFv
B4: ECL2-scFv (scFv)
scFv: DYKDDDDKLQSVLTQPPSASGTPGQRVTISCSGSSSNIGSHTVNWYQQLPGTAPKLLIYRNNQRPSGVPDRFSGSKSGTSASLAISGLRSEDEADYYCAAWDDSLSGVVFGGGTKLTVLGEGKSSGSGSESKASQVTLKESGAEVKKPGASVKVSCKASGYTFTNFYIHWVRRAPGQGLEWMGIINPSDGRTTYAQKFQGRVTMTRDTSTSTLYMELTSLRSEDTAVYYCGRGGHYSNYFGQPSTWGQGTLVTVSSVEAS
notes: the construct as expressed is not described; also called 4h-scFv

Tests used:
[1] = target: T1, biotinylated N-terminal domain CCR2 …; test: phage ELISA on the N-terminal peptide
Description: Nunc MaxiSorp 96-well plates were coated with NeutrAvidin at 5 μg/mL and incubated overnight at 4° C. The plate was thoroughly washed with 0.1% PBS-Tween (PBST), and 5 μg/mL biotinylated N-terminal domain CCR2 peptide ([…] (SEQ ID NO:58); ABclonal, Woburn, Mass.) added and incubated for 1 h at room temperature. The wells were washed with 0.1% PBST and then blocked with casein blocking buffer for 1 h at room temperature. The wells were washed with 0.1% PBST followed by incubation of serially diluted scFv for 1 h at room temperature before being washed five times with 0.1% PBST. Washes were followed by the addition of 100 uL of the respective horse-radish peroxidase (HRP)-linked monoclonal antibody (mAb) for 1 h at room temperature with rocking. An anti-M13 mAb was used to detect phages (#27-9421-01, GE healthcare, Chicago, Ill.) and an anti-flag mAb was used to detect scFv (#A8592, Sigma Aldrich, St. Louis, Mo.). The wells were washed with 0.1% PBST followed by the addition of TMB-ELISA substrate. After 10 min incubation, 2 M H₂SO₄ was added to stop the reaction. The absorbance was measured at 450 nm with a FilterMax F3 & F5 multi-mode microplate reader (Molecular Devices, Sunnyvale, Calif.). A 1:1 binding ratio Hill model was used to fit the binding interaction data.

[2] = target: T2, ECL2 domain of the CCR2 chemokine …; test: binding assay of FIG. 16A,B on the ECL2 domain (method not given)

Binder	binding result [1]	Kd [2] [nM]
B1	binds	–
B2	binds	–
B3	binds	–
B4	–	5.3
